Measurements from patent US20260242478A1 (published 2026).
Where no end group is shown, it is not given here.

B1: Phage-1807 (peptide)
peptide: VVIKCKPEWMCSGF
notes: tested as clonal phage supernatant
B2: Phage-1804 (peptide)
peptide: ITPVCKPLWMCSGL
notes: as for B1
B3: Phage-1805 (peptide)
peptide: VEVKCFPLWFCVGL
notes: as for B1
B4: Phage-1811 (peptide)
peptide: VNHWCVPTWMCAGF
notes: as for B1
B5: Phage-1803 (peptide)
peptide: LEPLCVPRWMCVGF
notes: as for B1
B6: Phage-1806 (peptide)
peptide: ITPICKPAWICSGF
notes: as for B1
B7: Phage-1809 (peptide)
peptide: YERACIPNWICEGF
notes: as for B1
B8: Phage-1810 (peptide)
peptide: TTHVCIPSWMCSGF
notes: as for B1
B9: Phage-1808 (peptide)
peptide: PEHLCLPRWMCEGF
notes: as for B1
B10: Phage-1701 (peptide)
peptide: WCSAVFSYQWPVCL
B11: Phage-1703 (peptide)
peptide: DCWWDSPYHWRVCL
B12: Phage-1699 (peptide)
peptide: TCAAGAAYTWPHCF
B13: Phage-1700 (peptide)
peptide: TCSAGAQWEWPACL
B14: Phage-1697 (peptide)
peptide: TCAAGAQLEWPWCF
B15: Phage-1698 (peptide)
peptide: GCAAGAEYNWPTCL
B16: Phage-1696 (peptide)
peptide: PCSAGATYAWPYCL
B17: Phage-1702 (peptide)
peptide: SCSAGASYAWPMCI
B18: Phage-1715 (peptide)
peptide: ILCGLYEALVSECG
modifications: cysteine pairing not given here; also: displayed on phage as pIII fusion, pIII sequence, linker and fusion order not given here
notes: not shown: pIII coat protein of the bacteriophage to which the peptide is fused
B19: Phage-1716 (peptide)
peptide: IECAYMTDQRFWCW
modifications: cysteine pairing not given here; also: fused to phage pIII (clonal phage display)
notes: as for B18
B20: Phage-1710 (peptide)
peptide: SIPCIPRDWLCPIK
modifications: cysteine pairing not given here; also: displayed as fusion to phage pIII, linker and order of fusion not given here
notes: as for B18
B21: Phage-1719 (peptide)
peptide: DCFYAADIHWNYCN
modifications: cysteine pairing not given here; also: displayed on phage as pIII fusion, pIII sequence, linker and fusion order not given here
notes: as for B18
B22: Phage-1711 (peptide)
peptide: MEYCSFHRFTCVLW
modifications: cysteine pairing not given here; also: displayed on phage as pIII fusion, pIII sequence, linker and fusion order not given here
notes: as for B18
B23: Phage-1714 (peptide)
peptide: FVCWTFGEHIKVCR
modifications: cysteine pairing not given here; also: displayed on phage as pIII fusion, pIII sequence, linker and fusion order not given here
notes: as for B18
B24: Phage-1721 (peptide)
peptide: SCFSFARLEVVPCD
modifications: cysteine pairing not given here; also: displayed on phage as pIII fusion, pIII sequence, linker and fusion order not given here
notes: as for B18
B25: Phage-1707 (peptide)
peptide: LMKWCTPRWMCAAE
modifications: cysteine pairing not given here; also: fused to phage pIII (clonal phage display)
notes: as for B18
B26: Phage-1717 (peptide)
peptide: HCLGPALGPVDGDC
modifications: cysteine pairing not given here; also: displayed on phage as pIII fusion, pIII sequence, linker and fusion order not given here
notes: as for B18
B27: Phage-1712 (peptide)
peptide: IRCVGEGHDLVCIF
modifications: cysteine pairing not given here; also: displayed on phage as pIII fusion, pIII sequence, linker and fusion order not given here
notes: as for B18
B28: Phage-1722 (peptide)
peptide: TCLRFADLAIIHCD
modifications: cysteine pairing not given here; also: displayed on phage as pIII fusion, pIII sequence, linker and fusion order not given here
notes: also called Peptide-160; not shown: pIII coat protein of the bacteriophage to which the peptide is fused
B29: Phage-1708 (peptide)
peptide: IAVLCQPNWMCAGF
modifications: cysteine pairing not given here; also: fused to phage pIII (clonal phage display)
notes: also called Peptide-180; not shown: pIII coat protein of the bacteriophage to which the peptide is fused
B30: Phage-1709 (peptide)
peptide: PELRCVPFWMCSFN
modifications: cysteine pairing not given here; also: fused to phage pIII (clonal phage display)
notes: as for B18
B31: Phage-1718 (peptide)
peptide: SCGWLRGEEFGWWC
modifications: cysteine pairing not given here; also: displayed on phage as pIII fusion, pIII sequence, linker and fusion order not given here
notes: also called Peptide-190; not shown: pIII coat protein of the bacteriophage to which the peptide is fused

What follows are binders tested against T1, Anti-PSMA Fab (SEQ ID NOs: 19, 20) (assay: phage binding ELISA; PSMA Fab coated wells pre-incubated with PSMA antigen as competitor, anti-M13 HRP detection).
T1 construct: also called 006 PSMA Fab
Method: (§1) Clonal phage were harvested as crude supernatants and screened via standard ELISAs. […] Prior to the addition of clonal phage. wells were incubated with blocking buffer and PSMA antigen or blocking buffer alone. Without washing or aspirating, clonal phage supernatants were then added to the wells and incubated for a short time. Wells were then washed followed by detection of bound phage using a horse radish conjugated anti-M13 antibody.

| Binder | Anti-PSMA Fab signal in the presence of PSMA |
| --- | --- |
| B1 | 0.0946 |
| B2 | 0.0764 |
| B3 | 0.0923 |
| B4 | 0.186 |
| B5 | 0.112 |
| B6 | 0.0631 |
| B7 | 0.0842 |
| B8 | 0.0668 |
| B9 | 0.135 |

Each binder was assayed against T1, Anti-PSMA Fab (SEQ ID NOs: 19, 20) (assay: phage binding ELISA; biotinylated PSMA Fab on neutravidin plate, clonal phage supernatant, anti-M13 HRP detection;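 note: wells were preincubated with blocking buffer either containing PSMA antigen or without it before crude phage supernatant was added, briefly incubated, then washed prior to detection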).
Method: as §1

| Binder | Anti-PSMA Fab (SEQ ID NOs: 19, 20) signal |
| --- | --- |
| B1 | 2.18 |
| B2 | 2.35 |
| B3 | 2.23 |
| B4 | 2.41 |
| B5 | 2.36 |
| B6 | 2.2 |
| B7 | 1.03 |
| B8 | 2.15 |
| B9 | 1.78 |

What follows are binders tested against T2, Anti-CD28 Fab (SEQ ID NOs: 696, 697) (assay: phage binding ELISA; biotinylated anti-CD28 Fab on neutravidin plate, clonal phage supernatant, anti-M13 HRP detection;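 note: wells pretreated with blocking buffer, either plus or minus CD28 antigen, then given crude phage supernatant briefly without washing in between, then washed before anti-M13 HRP readout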).
T2 construct: In the phage ELISA the Fab was biotinylated and captured on neutravidin coated plates
T2 sequence (VH, as listed by the source, chain 1 of 2): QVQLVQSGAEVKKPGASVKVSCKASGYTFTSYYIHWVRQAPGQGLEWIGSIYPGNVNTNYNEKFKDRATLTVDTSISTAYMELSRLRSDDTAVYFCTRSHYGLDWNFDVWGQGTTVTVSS
T2 sequence (VL, as listed by the source, chain 2 of 2): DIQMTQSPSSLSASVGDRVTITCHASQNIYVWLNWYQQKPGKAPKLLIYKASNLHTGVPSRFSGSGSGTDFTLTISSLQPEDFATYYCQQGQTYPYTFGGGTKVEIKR
Method: (§2) Clonal phage were harvested as crude supematants and screened via standard ELISAs. […] Prior to the addition of clonal phage, wells were incubated with blocking buffer and CD28 antigen or blocking buffer alone. Without washing or aspirating, clonal phage supematants were then added to the wells and incubated for a short time. Wells were then washed followed by detection of bound phage using a horse radish conjugated anti-M13 antibody.

| Binder | Phage binding ELISA, Anti-CD28 Fab signal |
| --- | --- |
| B10 | 0.61 |
| B11 | 0.57 |
| B12 | 0.69 |
| B13 | 0.67 |
| B14 | 0.7 |
| B15 | 0.69 |
| B16 | 0.71 |
| B17 | 0.59 |

Each binder was assayed against T3, Anti-PSMA Fab (SEQ ID NOs: 19, 20) (assay: phage binding ELISA; biotinylated anti-PSMA Fab on neutravidin plate, clonal phage supernatant, anti-M13-HRP detection).
T3 construct: Used biotinylated and captured on neutravidin coated plates; also called 006 PSMA Fab
Method: as §1

| Binder | Anti-PSMA Fab (SEQ ID NOs: 19, 20) signal |
| --- | --- |
| B18 | 2.49 |
| B19 | 1.93 |
| B20 | 1.89 |
| B21 | 1.88 |
| B22 | 1.88 |
| B23 | 2.51 |
| B24 | 1.26 |
| B25 | 1.04 |
| B26 | 2.33 |
| B27 | 2.36 |
| B28 | 1.82 |
| B29 | 0.997 |
| B30 | 0.622 |
| B31 | 0.648 |

These binders were tested against T2, Anti-CD28 Fab (SEQ ID NOs: 696, 697) (assay: phage binding ELISA on plate-captured anti-CD28 Fab pre-incubated with CD28 antigen (competitor: CD28), anti-M13 HRP detection).
Method: as §2

| Binder | Phage binding ELISA, Anti-CD28 Fab signal in the presence of CD28 |
| --- | --- |
| B10 | 0.06 |
| B11 | 0.07 |
| B12 | 0.11 |
| B13 | 0.08 |
| B14 | 0.07 |
| B15 | 0.64 |
| B16 | 0.09 |
| B17 | 0.06 |

What follows are binders tested against T3, Anti-PSMA Fab (SEQ ID NOs: 19, 20) (assay: phage binding ELISA; biotinylated anti-PSMA Fab on neutravidin plate, wells pre-incubated with PSMA antigen as competitor, anti-M13-HRP detection).
Method: as §1

| Binder | Anti-PSMA Fab signal in the presence of PSMA |
| --- | --- |
| B18 | 0.063 |
| B19 | 0.066 |
| B20 | 0.096 |
| B21 | 1.15 |
| B22 | 0.117 |
| B23 | 0.205 |
| B24 | 0.0555 |
| B25 | 0.232 |
| B26 | 0.076 |
| B27 | 0.072 |
| B28 | 0.0697 |
| B29 | 0.077 |
| B30 | 0.064 |
| B31 | 0.071 |
